These results are taken from patent US20100263089A1, “USE OF P[…] FROM A PA1B LEGUME ALBUMEN AS INSECTICIDE” (Institut National de la Recherche Agronomique, priority 1998, published 2010).

Data set [1] is described as follows: Stability of the entomotoxic activity (storage in dry seeds, heating). The method, then:
In addition, this activity is not affected by heating to 100° C.

Data set [2] relates to humans or higher animals. To be noted: present in legumes of the conventional diet; no test described; cited from earlier work.

Consider “PAlb protein: pea albumin PA1b (SEQ ID NO: 7) described by HIGGINS et al. (ASCNGVCSPFEMPPCGTSACRCIPVGLVVGYCRNPSG)”, for which the “entomotoxic/insecticidal activity after storage” value in data set [1] (dry seeds stored for several years) is listed as “conserves its insecticidal activity”. Further, the “entomotoxic/insecticidal activity after heating” value in data set [1] (heating to 100° C.) is reported as “not affected”. Besides, the “toxicity for humans or higher animals” value in data set [2] is listed as “not toxic”.
